A short description of data set [1]: immunofluorescence, confocal microscopy. Particulars: glycan lost; control: untreated cells.
The nature of data set [2]: cycloheximide chase 0-12 h, western blot. Particulars: glycan lost; control: CHX alone. Background: Immunoblotting shows a protein as a band on a membrane.

B1: ACTRIIB (activin receptor type IIB, ACVR2B): tunicamycin (TM) (protein)
parent chain: MTAPWVALALLWGSLCAGSGRGEAETRECIYYNANWELERTNQSGLERCEGEQDKRLHCYASWRNSSGTIELVKKGCWLDDFNCYDRQECVATEENPQVYFCCCEGNFCNERFTHLPEAGGPEVTYEPPPTAPTLLTVLAYSLLPIGGLSLIVLLAFWMYRHRKPPYGHVDIHEDPGPPPPSPLVGLKPLQLLEIKARGRFGCVWKAQLMNDFVAVKIFPLQDKQSWQSEREIFSTPGMKHENLLQFIAAEKRGSNLEVELWLITAFHDKGSLTDYLKGNIITWNELCHVAETMSRGLSYLHEDVPWCRGEGHKPSIAHRDFKSKNVLLKSDLTAVLADFGLAVRFEPGKPPGDTHGQVGTRRYMAPEVLEGAINFQRDAFLRIDMYAMGLVLWELVSRCKAADGPVDEYMLPFEEEIGQHPSLEELQEVVVHKKMRPTIKDHWLKHPGLAQLCVTIEECWDHDAEARLSAGCVEERVSLIRRSVNGTTSDCLVSLVTSVTNVDLPPKESSI
In the case of B1, the localisation_or_trafficking result in data set [1] is listed as “decreases”.

B2: ACTRIIB (activin receptor type IIB, ACVR2B): tunicamycin (TM) + CHX (protein)
parent chain: B1 parent chain
On to B2, for which the degradation_or_half_life entry in data set [2] was “decreases”.
